Laboratory results taken from the RNAGym collection of RNA variant scans (doi:10.7554/elife.90254).

B1: LINE1-mini (parent)
chain: GGCAGAGCUCAACACAGCGUGGCAAAGUGGCUGUGGCUAGACUGCC

Variants of: B1
Experiment: self-cleavage, relative activity (ratio to wild type); higher = more cleavage; in vitro, sequencing; the parent is a self-cleaving ribozyme
Variant GGCAGGGCUCAACACAGCGUGGCACAGUGGCUGUGGCUAGACUGCC [A6G A25C] has a self-cleavage of 0.1.
GGCAGAGCUCAACACAGCGGGGCAAAGUGGCUGUGACUAGACUGCC [U20G G36A] showed a self-cleavage of 0.08.
GGCAGAGCUCAACACACCGUGGCAAAGUGGCCGUGGCUAGACUGCC [G17C U32C] gave a self-cleavage of 0.14.
Variant GGCAGAGCUCAACACAGCGCGCCAAAGUGGCUGUGGCUAGACUGCC [U20C G22C] has a self-cleavage of 0.19.
For GGCAGAGCUCAACACAGCGUGGCAAAGUGACUGUGGCUAUACUGCC [G30A G40U], the self-cleavage was 0.18.
GGCAGAACUCAACACAGCGUGGCAAAGUGGCUGUGGCUAGACAGCC [G7A U43A] showed a self-cleavage of 0.15.
GCCAGUGCUCAACACAGCGUGGCAAAGUGGCUGUGGCUAGACUGCC [G2C A6U] showed a self-cleavage of 0.14.
In the case of GGCAGAGCUCAACACAGCGUGGCAAAGUGGCAGUGGCUAGACGGCC [U32A U43G], the self-cleavage is reported as 0.11.
GGCAGAGCUCAACACAGUAUGGCAAAGUGGCUGUGGCUAGACUGCC [C18U G19A] gave a self-cleavage of 1.13.
With GGCAGAGCUCAACAAAGCGUGUCAAAGUGGCUGUGGCUAGACUGCC [C15A G22U] the self-cleavage was 0.08.
Work on GGCAGAGCUCAACACAGCGGGGCAAAGUGGCUGUGGCUAGACCGCC [U20G U43C] yielded a self-cleavage of 0.04.
GGCAGAGCUCAACACAGCGUGGCAGAGUGCCUGUGGCUAGACUGCC [A25G G30C] gave a self-cleavage of 1.19.
GGCAGAGCUCAACUCAGCGUGGCAAAGUGGCUGUGGCUAGACCGCC [A14U U43C] gave a self-cleavage of 0.07.
GGCAGAGCUCAACACAGCGUGGCAAAGCGGCUGUGGCUAGACUCCC [U28C G44C] showed a self-cleavage of 0.27.
For GGCAGAGCUCAACACAGCGUUGCAAAGUGGCUGUGGCUAAACUGCC [G21U G40A], the self-cleavage was 0.29.
Variant GGCAGUGCUCAACACAGCGUGGCAAAGUGGCUGUAGCUAGACUGCC [A6U G35A] has a self-cleavage of 0.12.
In the case of GGCAGACCUCAACACAGCGUGGAAAAGUGGCUGUGGCUAGACUGCC [G7C C23A], the self-cleavage is reported as 0.09.
UGCAGAGCUCAACACAGCGUGGCAGAGUGGCUGUGGCUAGACUGCC [G1U A25G] gave a self-cleavage of 0.21.
Variant GGCACAGCUCAACACCGCGUGGCAAAGUGGCUGUGGCUAGACUGCC [G5C A16C] has a self-cleavage of 0.07.
GGCACAGCUCAACACUGCGUGGCAAAGUGGCUGUGGCUAGACUGCC [G5C A16U] gave a self-cleavage of 0.04.
Variant GGCAGAGCUCAACACAUCGUGGCAAAGUGGAUGUGGCUAGACUGCC [G17U C31A] has a self-cleavage of 0.88.
GGCAGAGCUAAACACAGCGUGGCAAAGUGGCUCUGGCUAGACUGCC [C10A G33C] gave a self-cleavage of 0.03.
Work on GGCAGAGCUCAAUACAGCUUGGCAAAGUGGCUGUGGCUAGACUGCC [C13U G19U] yielded a self-cleavage of 0.23.
For GGCAGAGCUCAACAAAGUGUGGCAAAGUGGCUGUGGCUAGACUGCC [C15A C18U], the self-cleavage was 0.14.
Variant GGCAGAGCUCAACACAGCGUGGUAAAGUGGCUGUGGCUAGGCUGCC [C23U A41G] has a self-cleavage of 0.51.
Variant GGCAGAGCUCAACACAGCCUGGCAAAGUGGCUGUAGCUAGACUGCC [G19C G35A] has a self-cleavage of 0.17.
With GGCAGAGCUCAACACAUCGUGGCUAAGUGGCUGUGGCUAGACUGCC [G17U A24U] the self-cleavage was 0.25.
In the case of GGCAGAGCUCAACACAGCCUGGCAAAGUGGCUGUGGCUAGACUUCC [G19C G44U], the self-cleavage is reported as 0.15.
GGCAGCGCACAACACAGCGUGGCAAAGUGGCUGUGGCUAGACUGCC [A6C U9A] gave a self-cleavage of 0.18.
Work on GGCAAAGCUCAACACAGCGUGGCAAAGUGGCUGUGGCAAGACUGCC [G5A U38A] yielded a self-cleavage of 0.16.
For GGAAGAGCACAACACAGCGUGGCAAAGUGGCUGUGGCUAGACUGCC [C3A U9A], the self-cleavage was 0.59.
Variant GUCAGAGCUCAACACAUCGUGGCAAAGUGGCUGUGGCUAGACUGCC [G2U G17U] has a self-cleavage of 0.04.
GGCAGAGCUCGACACAGCGUGCCAAAGUGGCUGUGGCUAGACUGCC [A11G G22C] showed a self-cleavage of 0.02.
Variant GGCAGAGCUCAACAGAGCGUGGCAAAGUGGCUGUGGCUAGGCUGCC [C15G A41G] has a self-cleavage of 0.04.
For GGCAGAGCUCAUCACAGCGUGGCAAAGUGGCGGUGGCUAGACUGCC [A12U U32G], the self-cleavage was 0.08.
For GGCAGGGCUCAUCACAGCGUGGCAAAGUGGCUGUGGCUAGACUGCC [A6G A12U], the self-cleavage was 0.09.
Variant GGCAGAGAUCAACACAGCGUGGCAAAGUGGCUGUGGCUAGACUUCC [C8A G44U] has a self-cleavage of 0.43.
With GGCACAGCUCAACACAGUGUGGCAAAGUGGCUGUGGCUAGACUGCC [G5C C18U] the self-cleavage was 0.03.
Variant GGCAGAGCUCAACACUGCGUGGCAAAGUGUCUGUGGCUAGACUGCC [A16U G30U] has a self-cleavage of 0.06.
In the case of GGCAGAGCUCAACACUGCGUGGCAAAGUGACUGUGGCUAGACUGCC [A16U G30A], the self-cleavage is reported as 0.1.
Variant AGCAGAGCUCAACACAGCGUGGCAAAGUGGCUGAGGCUAGACUGCC [G1A U34A] has a self-cleavage of 0.08.
With GGCAGAGCUCAACGCAGCGUGGCAAAGUGGCUGUGGCUAGACUCCC [A14G G44C] the self-cleavage was 0.19.
In the case of GGCAGAGCUCAAUACAGCGUGGCAAUGUGGCUGUGGCUAGACUGCC [C13U A26U], the self-cleavage is reported as 0.15.
For GGCAGAGCUCAACCCAGCGUGGCAAAGUGGCUUUGGCUAGACUGCC [A14C G33U], the self-cleavage was 0.05.
For GGCAGAGCUCAACACAGCGGGGCAAAGGGGCUGUGGCUAGACUGCC [U20G U28G], the self-cleavage was 0.51.
For GGCAGAGCUCAACACAGCGUGGCAAAGUGGUUGUGGCUAGACUGCC [C31U], the self-cleavage was 0.26.
In the case of GGCAGAGCUCAACACCGCGUGGCAAAGGGGCUGUGGCUAGACUGCC [A16C U28G], the self-cleavage is reported as 0.07.
Work on GGCAGAGCUCAACACCGCGUGGCAAAGCGGCUGUGGCUAGACUGCC [A16C U28C] yielded a self-cleavage of 0.03.
GGCAGAGCUGAACACAGCGUGGCAUAGUGGCUGUGGCUAGACUGCC [C10G A25U] showed a self-cleavage of 0.1.
GGCAGAGCUCAACGCAGCGUGGCAAAGUGGUUGUGGCUAGACUGCC [A14G C31U] showed a self-cleavage of 0.04.
Work on GGCAGAGCUCAACACAGCGUGGCACAGUGGCUGUGGCUAUACUGCC [A25C G40U] yielded a self-cleavage of 0.08.
Variant GGCAGAGCUCAACACAGCGUGGCAAAGAGGCUGUGGCUAGACUCCC [U28A G44C] has a self-cleavage of 0.62.
For GGCAGAGCUCAACAGAGCGUGGCAAAGUGGGUGUGGCUAGACUGCC [C15G C31G], the self-cleavage was 0.03.
Work on GGCAGAGCUCAACACAGCGUGGCAAAGUGGCGGAGGCUAGACUGCC [U32G U34A] yielded a self-cleavage of 0.04.
GGCAGAGCUCAACAUAGCGUGGCUAAGUGGCUGUGGCUAGACUGCC [C15U A24U] showed a self-cleavage of 0.32.
In the case of GUCAGAGCUCAACACAGCGUGGCAAAGUGGUUGUGGCUAGACUGCC [G2U C31U], the self-cleavage is reported as 0.02.
